Experimental data published in patent US9835633.

Biological target: human apolipoprotein E4
Sequence (chain, as listed by the source): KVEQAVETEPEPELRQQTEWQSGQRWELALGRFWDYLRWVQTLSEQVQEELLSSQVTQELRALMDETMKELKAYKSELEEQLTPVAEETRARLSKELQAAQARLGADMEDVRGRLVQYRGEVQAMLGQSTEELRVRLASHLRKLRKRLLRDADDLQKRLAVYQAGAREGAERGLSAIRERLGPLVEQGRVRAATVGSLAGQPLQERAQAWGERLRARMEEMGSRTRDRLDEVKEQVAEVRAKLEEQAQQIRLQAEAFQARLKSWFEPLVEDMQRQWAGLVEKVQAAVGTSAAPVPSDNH

| Protein | apoE fragmentation after PCSK2 shRNA in PCSK1 null and PCSK1 WT primary neurons | apoE fragmentation in NSE-apoE4 primary neurons after shRNA knockdown | apoE fragmentation by western blot in brains of PCSK1 null, NSE-apoE4 pups | apoE fragmentation in PCSK1 null primary neurons |
| --- | --- | --- | --- | --- |
| endogenous PCSK2 of NSE-apoE4 mouse neurons/brain (protein) GYRDINEIDINMNDPLFTKQWYLFNTGQADGTPGLDLNVAEAWELGYTGKGVTIGIMDDGIDYLHPDLAYNYNADASYDFSSNDPYPYPRYTDDWFNSHGTRCAGEVSAAASNNICGVGVAYNSKVAGIRMLDQPFMTDIIEASSISHMPQLIDIYSASWGPTDNGKTVDGPRELTLQAMADGVNKGRGGKGSIYVWASGDGGSYDDCNCDGYASSMWTISINSAINDGRTALYDESCSSTLASTFSNGRKRNPEAGVATTDLYGNCTLRHSGTSAAAPEAAGVFALALEANLDLTWRDMQHLTVLTSKRNQLHDEVHQWRRNGVGLEFNHLFGYGVLDAGAMVKMAKDWKTVPERFHCVGGSVQNPEKIPPTGKLVLTLKTNACEGKENFVRYLEHVQAVITVNATRRGDLNINMTSPMGTKSILLSRRPRDDDSKVGFDKWPFMTTHTWGEDARGTWTLELGFVGSAPQKGLLKEWTLMLHGTQSAPYIDQVVRDYQSKLAMSKKQELEEELDEAVERSLQSILRKN | PCSK2 shRNAs or 7B2 shRNAs decrease apoE fragmentation in PCSK1 null, primary neurons as well as in PCSK1 WT primary neurons | knocking down either PCSK1 or PCSK2 in NSE-apoE4 primary neurons decreased apoE fragmentation |  |  |
| endogenous PCSK1 of NSE-apoE4 mouse neurons/brain (protein) SVQKDSALDLFNDPMWNQQWYLQDTRMTAALPKLDLHVIPVWEKGITGKGVVITVLDDGLEWNHTDIYANYDPEASYDFNDNDHDPFPRYDLTNENKHGTRCAGEIAMQANNHKCGVGVAYNSKVGGIRMLDGIVTDAIEASSIGFNPGHVDIYSASWGPNDDGKTVEGPGRLAQKAFEYGVKQGRQGKGSIFVWASGNGGRQGDNCDCDGYTDSIYTISISSASQQGLSPWYAEKCSSTLATSYSSGDYTDQRITSADLHNDCTETHTGTSASAPLAAGIFALALEANPNLTWRDMQHLVVWTSEYDPLASNPGWKKNGAGLMVNSRFGFGLLNAKALVDLADPRTWRNVPEKKECVVKDNNFEPRALKANGEVIVEIPTRACEGQENAIKSLEHVQFEATIEYSRRGDLHVTLTSAVGTSTVLLAERERDTSPNGFKNWDFMSVHTWGENPVGTWTLKITDMSGRMQNEGRIVNWKLILHGTSSQPEHMKQPRVYTSYNTVQNDRRGVEKMVNVVEKRPTQKSLNGNLLVPKNSSSSNVEGRRDEQVQGTPSKAMLRLLQSAFSKNALSKQSPKKSPSAKLSIPYESFYEALEKLNKPSKLEGSEDSLYSDYVDVFYNTKPYKHRDDRLLQALMDILNEEN |  | knocking down either PCSK1 or PCSK2 in NSE-apoE4 primary neurons decreased apoE fragmentation | a significant decrease in apoE fragmentation was observed in PCSK1 null, NSE-apoE4 brains compared to that of PCSK1 WT, NSE-apoE4 brains | A decrease of apoE fragmentation was observed in PCSK1 null primary neurons compared to PCSK1 wild-type (WT) neurons |
